From patent publication US20230365642A1 come the findings set out here.

The assay has as its target high affinity IL-2 receptor (IL-2R) consisting of CD122, CD132 and CD25, on CTLL-2 cells (mouse) (UniProt P01590). As to the kind of experiment: cell-based or functional assay.

high affinity IL-2 receptor (IL-2R) consisting of CD122, CD132 and CD25, on CTLL-2 cells (mouse), sequence (P01590 22-268, chain 1 of 3): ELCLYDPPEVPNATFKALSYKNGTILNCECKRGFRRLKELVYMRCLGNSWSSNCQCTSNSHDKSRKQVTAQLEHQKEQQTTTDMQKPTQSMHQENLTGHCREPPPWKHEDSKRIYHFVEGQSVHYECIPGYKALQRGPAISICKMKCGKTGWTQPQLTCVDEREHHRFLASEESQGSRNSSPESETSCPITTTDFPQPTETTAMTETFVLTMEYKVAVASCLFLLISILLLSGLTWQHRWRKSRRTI
high affinity IL-2 receptor (IL-2R) consisting of CD122, CD132 and CD25, on CTLL-2 cells (mouse), sequence (P16297 27-539, chain 2 of 3, further chain): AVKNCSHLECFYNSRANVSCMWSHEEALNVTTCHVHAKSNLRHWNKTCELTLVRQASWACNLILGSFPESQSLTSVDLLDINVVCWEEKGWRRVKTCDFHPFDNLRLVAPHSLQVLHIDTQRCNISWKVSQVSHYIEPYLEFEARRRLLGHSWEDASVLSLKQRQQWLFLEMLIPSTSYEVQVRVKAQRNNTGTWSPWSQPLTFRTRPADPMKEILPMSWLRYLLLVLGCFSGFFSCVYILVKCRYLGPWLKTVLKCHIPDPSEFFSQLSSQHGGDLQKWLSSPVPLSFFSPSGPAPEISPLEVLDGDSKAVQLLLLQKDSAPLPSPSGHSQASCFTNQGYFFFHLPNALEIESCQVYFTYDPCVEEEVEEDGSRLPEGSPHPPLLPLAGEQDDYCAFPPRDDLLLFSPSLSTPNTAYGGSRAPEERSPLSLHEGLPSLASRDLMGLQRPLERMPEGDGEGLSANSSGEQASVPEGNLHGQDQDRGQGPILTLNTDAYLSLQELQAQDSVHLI
high affinity IL-2 receptor (IL-2R) consisting of CD122, CD132 and CD25, on CTLL-2 cells (mouse), sequence (P34902 23-369, chain 3 of 3, further chain): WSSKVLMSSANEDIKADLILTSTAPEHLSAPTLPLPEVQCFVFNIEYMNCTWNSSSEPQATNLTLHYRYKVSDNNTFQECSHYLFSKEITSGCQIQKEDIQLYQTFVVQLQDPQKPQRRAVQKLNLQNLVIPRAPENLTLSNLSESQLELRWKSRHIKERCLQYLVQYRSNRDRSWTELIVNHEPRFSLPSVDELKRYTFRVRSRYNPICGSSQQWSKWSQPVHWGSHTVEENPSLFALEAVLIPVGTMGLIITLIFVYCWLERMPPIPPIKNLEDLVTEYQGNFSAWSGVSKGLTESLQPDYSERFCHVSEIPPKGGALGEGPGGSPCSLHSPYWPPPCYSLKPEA

“rhIL-2 (from UniProt P60568 21-153) (ligand)” had a CTLL-2 cell proliferation, EC50 of 6.4 pM.
